Source: publication PMC5485859

Key:
Conditions in all cases: reference: WT HSP90α, after IR; sites T5,T7
[1] = target: endothelial nitric oxide synthase (eNOS) (UniProt P70313); assay: co-immunoprecipitation
[2] = target: androgen receptor (AR) (UniProt P19091); assay: co-immunoprecipitation
[3] = target: glucocorticoid receptor (GR) (UniProt P06537); assay: anti-GR IP, anti-Flag blot
[4] = target: liver kinase B1 (LKB1) (UniProt Q9WTK7); assay: anti-LKB1 IP, anti-Flag blot

binding against the reference [1]: stronger | binding against the reference [2]: stronger | binding against the reference [3]: stronger | binding against the reference [4]: stronger
Substance: HSP90α (from UniProt P07901) T5,7A HSP90α, after IR
